From patent US20250320282A1 (MABYLON, published 2025)
Numbering of substitutions follows the chain as printed.

T1: Ara h 6 (Arachis hypogaea allergen 6) (Arachis hypogaea, UniProt Q647G9 22-145)
T1 construct: Peanut allergen; also called Ara h 6.0101; nAra h 6
T1 sequence: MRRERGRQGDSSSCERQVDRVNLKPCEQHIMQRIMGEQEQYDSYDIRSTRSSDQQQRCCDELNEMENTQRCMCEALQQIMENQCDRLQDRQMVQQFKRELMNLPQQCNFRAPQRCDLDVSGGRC

T2: Ara h 2 (Arachis hypogaea allergen 2) (Arachis hypogaea, UniProt Q6PSU2 22-172)
T2 construct: Peanut allergen; also called nAra h 2; natural Ara h 2
T2 sequence: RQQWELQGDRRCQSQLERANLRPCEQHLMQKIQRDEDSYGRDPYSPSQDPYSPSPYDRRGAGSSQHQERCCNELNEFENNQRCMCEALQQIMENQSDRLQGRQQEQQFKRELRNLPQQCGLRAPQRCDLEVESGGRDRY

T3: Ara h 3 (Arachis hypogaea allergen 3) (Arachis hypogaea)
T3 construct: Peanut allergen; also called Ara h 3.0101; nAra h 3
T3 chain: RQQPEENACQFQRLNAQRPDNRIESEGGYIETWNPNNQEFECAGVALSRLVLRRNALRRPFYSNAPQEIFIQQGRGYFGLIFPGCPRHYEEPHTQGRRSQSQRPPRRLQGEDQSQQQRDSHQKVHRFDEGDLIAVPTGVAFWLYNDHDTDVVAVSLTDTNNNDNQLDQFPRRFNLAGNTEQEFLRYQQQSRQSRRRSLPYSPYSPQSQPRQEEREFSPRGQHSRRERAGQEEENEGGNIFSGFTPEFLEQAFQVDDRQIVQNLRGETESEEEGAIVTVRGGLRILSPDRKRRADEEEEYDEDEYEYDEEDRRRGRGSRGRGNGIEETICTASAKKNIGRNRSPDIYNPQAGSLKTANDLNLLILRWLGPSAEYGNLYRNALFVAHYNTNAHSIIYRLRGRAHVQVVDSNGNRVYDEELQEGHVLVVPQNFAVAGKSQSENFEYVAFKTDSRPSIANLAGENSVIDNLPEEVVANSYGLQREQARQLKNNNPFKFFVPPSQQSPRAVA

B1: 7G6_rb_IGHV1S47_J3+IGKV1S19_JK1-2 (antibody, V domains shown)
VH: QEQLVESGGGLVQPEGSLTLTCKASGFDFSDYTMHWVRQAPGKGPEWIAAISYGGTNKYYADSVKGRFTISRSTSLNTVTLQMTSLTAVDTATYFCARDSGYRSLLHWGQGTLVTVSS
VL: AAVLTQTPSPVSAAVGGTVTIKCRSSQSLVHRNGYNYLDWYQQKPGQPPKLLIYMASKRASGVPDRFSGSGSGTQFTLTISGVQCDDAATYYCMQALQTWTFGGGTKVVVK
B2: 7G6_rb_IGHV1S47_J3+K66N_IGKV1S19_JK1-2 (antibody, V domains shown)
VH: B1 VH
VL: B1 VL with K58N
notes: Fully rabbit antibody: 7G6 CDRs grafted onto rabbit variable frameworks
B3: 7G6_rb_IGHV1S47_J3+IGKV1S19_JK1-3 (antibody, V domains shown)
VH: B1 VH
VL: B1 VL with F102L, G104P, V108L, V109E, V110I
B4: 7G6 (antibody, V domains shown)
VH: QVQLVESGGGVVQPGRSLRLSCAASGIAFNDYTMHWVRRSPDKGLEWVAAISYGGTNKYYADSVKGRFTISRDSSKNTLFLQMDSLRVEDTAVYYCARDSGYRSLLHWGQGTLVTVSS
VL: EIVLTQSPLSLPVTPGEPASISCRSSQSLVHRNGYNYLDWYLQKPGQSPQLLIYMASKRASGVPDRFSGSGSGTEFTLKISRVEAEDVGIYYCMQALQTWTFGQGTKVEVN
notes: Fully human monoclonal antibody, wild-type variable regions; tested as IgG; also called MY006-7G6
B5: 15E3 (antibody, V domains shown)
VH: EVQLVESGGALVQPGGSLRLSCAASGFKFSTFYMTWIRQAPGKGLEWVANIKQDGSEKDYLDSVRGRFNISRDNAKSVLYLQMNTLSADDTGVYYCTRNGLQDSYSGDFFDHWGQGILVTVSS
VL: QSVLTQPPSISAAPGQKVTISCSGTGSNIGHNYVSWYQQLPRTAPRLLIFDNTKRPSGIPDRFSGSKSGSSATLGITGLQTGDEAHYFCATWDADLSAVLFGGGTKLTVL
notes: Fully human monoclonal antibody, wild-type variable regions; also called MY006-15E3; 15E3-human IgG1
B6: 17H9 (antibody, V domains shown)
VH: QVQLEEYGGGVVQPGRSLRLSCVASGSTLGTYGMHWVRQAPGKGLEWVAIISPDGGHQDYADPVRGRFTVSRDNSKNTLYLQMDNLRVEDTAVYYCATTLCARTDCTWVRSDSWGQGTLVTVSS
VL: ANVLTQSPGTLSLSPGERATLSCRASQRVSGDYLAWYQQKRGQAPRLLIYGASSRATGIPDRFSGSGSGTDFTLTISRLEPEDFAVYYCQHYNGPPVTFGQGTKLEIK
notes: Fully human monoclonal antibody, wild-type variable regions; tested as IgG (detected with anti-human IgG); also called MY006-17H9
B7: 15E3_rb_IGHV1S8_J5+IGLV2S2_JL5 (antibody, V domains shown)
VH: QKQLVESGGGLDQPAGSLKLSCKDSGFTLSTFYMTWVHQAPGKGLEWIANIKQDGSEKDYLDSVRGRFTISSDNTQNMVDLEMNSLTAADMAIYFCARNGLQDSYSGDFFDHWGQGTLVTVSS
VL: QPALTQPSSVSGALGGSVTITCSGTGSNIGHNYVSWYQQLPGSVPKLLMFDNTKRPSGIPERFSGSKSGTTASLTISGLQPEDEADYYCATWDADLSAVLFGGGTKLTVL
B8: 2F8 (antibody, V domains shown)
VH: EVQLVESGGGLVKPGGSLRLSCAASGFIFSDYNMNWVRQAPGKGLEWVSSITRSSRTIYYADSVKGRFTISRDNAKNSLHLQMNSLRDADTAVYYCAREDFDVSTGPYYMDVWGNGTTVIVSS
VL: EIVLTQSPGTLSLSPGERATLSCRASQSVSNMFLVWYQQKPGQAPRLLMYGASTRATDIPDRFSGSGSGTDFTLTISRLEPEDFAVYYCQQNGNSPYTFGQGTKLEIK
notes: Fully human monoclonal antibody, wild-type variable regions; tested as IgG; also called MY006-2F8
B9: MY006-2F8 Fab Hg Lf (Fab, V domains shown)
VH: B8 VH with K13Q, H80Y, A89E, N115K, I120T
VL: B8 VL with M49I, D58G
notes: Germlined variant, IgG1-Fab format; also called 2F8: Hg/Lf

How the values were obtained:
[1] = molecular target: T1, Ara h 6 (Arachis hypogaea allergen 6); assay: ELISA, purified rabbit antibody
[2] = molecular target: T2, Ara h 2 (Arachis hypogaea allergen 2); assay: ELISA, antibody titrated on coated Ara h 2
Method: (§1) Monoclonal antibodies 2F8, 7G6, 17H9 and 15E3 were tested for their specificity against the major peanut allergens Ara h 1, 2, 3, and 6 by ELISA (enzyme linked immunosorbent assay). Briefly, ELISA plates were coated with respective Ara h proteins (Arah1: 0.5 ug/ml, Arah2: 0.01 ug/ml, Arah3: 0.1 ug/ml, Arah6: 0.05 ug/ml) overnight at 4° C. Afterwards, plates were blocked with BSA (2% in PBS) for 1 hour at room temperature. Antibody titration series starting from 3 ug/ml was prepared, added to the single ELISA plate wells and incubated for 2 h at room temperature. The read-out was performed by adding anti-hu-IgG-HRP (anti-human-IgG horseradish peroxidase; Jackson ImmunoResearch, West Grove, PA, USA) for 1 h at room temperature. Tetramethylbenzidine substrate solution (TMB, Sigma-Aldrich Chemie GmbH, Buchs, Switzerland) was added, then after 5 minutes of hydrolysis time, the reaction was stopped by the addition of 1 M H₂SO₄ and the absorbances were read at 450 nm.

[3] = molecular target: T1, Ara h 6 (Arachis hypogaea allergen 6); assay: ELISA, antibody titrated on coated Ara h 6
Method: as §1

[4] = molecular target: T3, Ara h 3 (Arachis hypogaea allergen 3); assay: ELISA, antibody titrated on coated Ara h 3
Method: as §1

[5] = molecular target: T1, Ara h 6 (Arachis hypogaea allergen 6); assay: ELISA, Fab titration on coated Ara h 6
Method: Next, the effect of the engineered variable regions on antigen binding was tested. Briefly, ELISA plates were coated with respective Ara h proteins (Ara h 2:0.05 ug/ml, Ara h 6:0.1 ug/ml, Ara h 3 loop (2nd): 0.1 ug/ml) overnight at 4° C. Afterwards, plates were blocked with BSA (2% in PBS) for 1 hour at room temperature. Fab fragment titration series starting from 4 ug/ml was prepared, added to the single ELISA plate wells and incubated for 2 h at room temperature. The read-out was performed by adding anti-hu-kappa/lambda-HRP (anti-kappa Invitrogen (A18853) and anti-lambda abcam (ab99811) for 1 h at room temperature. Tetramethylbenzidine substrate solution (TMB, Sigma-Aldrich Chemie GmbH, Buchs, Switzerland) was added, then after 5 minutes of hydrolysis time, the reaction was stopped by the addition of 1 M H₂SO₄ and the absorbances were read at 450 nm.

| Binder | binding result [1] | EC50 [2] [ng/mL] | EC50 [3] [ng/mL] | further results |
| --- | --- | --- | --- | --- |
| B1 | binds | – | – | – |
| B2 | binds | – | – | – |
| B3 | binds | – | – | – |
| B4 | – | 0.629 | 1 | – |
| B5 | – | 3.78 | 1.74 | – |
| B6 | – | 2.2 | – | EC50 [4]: 7.38 ng/mL |
| B7 | binds | – | – | – |
| B8 | – | 3.31 | 2.46 | – |
| B9 | – | – | – | binding result [5]: binds |
